Experimental data from article doi:10.1101/2021.04.19.439022, “Bacteriophage λ RexA and RexB Functions Assist the Transition from Lysogeny to Lytic Growth”.

Molecular target: T1, RexA (Bacteriophage lambda, UniProt P68924 1-279)
T1 sequence: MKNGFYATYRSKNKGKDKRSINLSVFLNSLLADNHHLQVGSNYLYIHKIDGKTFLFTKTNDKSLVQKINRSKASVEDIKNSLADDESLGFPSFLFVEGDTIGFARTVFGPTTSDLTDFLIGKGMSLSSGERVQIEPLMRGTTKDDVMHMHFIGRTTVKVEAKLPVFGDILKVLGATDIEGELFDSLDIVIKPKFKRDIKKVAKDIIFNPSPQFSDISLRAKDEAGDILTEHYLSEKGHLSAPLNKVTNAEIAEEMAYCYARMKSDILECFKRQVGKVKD
Test: filter binding; 2 mM Mg2+; Filter binding: 25 mM MES pH 6.5, 2.0 mM MgCl2, 0.1 mM DTT, 0.01 mM EDTA, 40 ug/mL BSA, 30 C, 10 min, 14.5 nM unlabeled + 0.5 nM labeled DNA; SEC: Superdex 200
Settings: protein: recombinant, tags: C-terminal 6xHis (pET21b), chain copies: 2, 5' overhang 1 nt at both ends

B1: OR1-OR2 (dsDNA)
DNA 1: AGATCTACCGGTAGAGCTT
DNA 2: TAAGCTCTACCGGTAGATC
modifications: m5C at position 8 of upper strand and position 10 of lower strand
binding result: binds

B2: OR1-OR2 scrambled (dsDNA)
DNA 1: AGATCTACCGGTAGAGCTT
DNA 2: TAAGCTCTACCGGTAGATC
binding result (label: 5'-32P): binds
